Biological target: 重组CEA蛋白 (UniProt P06731)
Sequence of UniProt P06731 (P06731 35-685 limits assumed): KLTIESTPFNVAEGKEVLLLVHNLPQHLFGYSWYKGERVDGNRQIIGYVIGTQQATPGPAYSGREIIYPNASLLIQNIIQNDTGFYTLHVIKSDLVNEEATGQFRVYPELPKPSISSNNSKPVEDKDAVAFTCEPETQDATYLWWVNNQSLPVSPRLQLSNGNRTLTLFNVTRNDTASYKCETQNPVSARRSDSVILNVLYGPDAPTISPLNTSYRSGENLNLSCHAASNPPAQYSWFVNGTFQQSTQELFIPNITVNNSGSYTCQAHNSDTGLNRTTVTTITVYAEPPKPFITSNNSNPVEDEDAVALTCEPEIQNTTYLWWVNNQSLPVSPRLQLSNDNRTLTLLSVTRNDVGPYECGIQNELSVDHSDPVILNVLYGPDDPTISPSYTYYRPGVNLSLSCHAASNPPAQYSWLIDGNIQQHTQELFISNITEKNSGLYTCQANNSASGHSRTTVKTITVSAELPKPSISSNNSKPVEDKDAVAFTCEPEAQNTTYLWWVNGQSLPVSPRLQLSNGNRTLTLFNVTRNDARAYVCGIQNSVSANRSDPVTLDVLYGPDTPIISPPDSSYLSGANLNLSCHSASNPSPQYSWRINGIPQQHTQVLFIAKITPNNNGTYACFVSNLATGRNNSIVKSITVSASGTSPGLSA

B1: 1#单抗 (antibody, mouse IgG1, kappa, V domains shown)
VH: QIQLVQSGPELKKPGETVKISCKTSGYTFTNYAMNWVKQAPGKGLKWMGWINTNTGEPTYAEEFKGRFAFSLETSATAAYLQINNLKNDDTASYFCARGWVLYAMDYWGQGTSVTVSS
VL: DIQMTQTTSSLSASLGDRVTISCRASQDISNYLNWYQQKSDGTVKLLIYYTSRLHSGVPSRFSGSGSGTDYSLTISNLDPEDVATYFCQQGDMFMFGGGTKLEIRT
效价 (titer): 100000
